Source: US20180057604A1 (Genentech, published 2018)
Where a chain is given by its changes, count along the chain named.

B1: 5990 (antibody, V domains shown)
VH: QLQLQESGPGLVKPSETLSLTCTVSGGSISWSSYYWSWIRQPPGKGLEWIGSIYRSGRTYYNPSLKSRVTISVDTSKNQFSLKLSSVTAADTAVYYCARVGHGINYFDLWGRGTLVTVSS
VL: EIVLTQSPATLSLSPGERATLSCRASRSVNSYLAWYQQKPGQAPRLLIYDASKRATGIPARFSGSGSGTDFTLTISSLEPEDFAVYYCQQVYTWPPRTFGGGTKVEIK
notes: anti-BACE1 IgG
B2: 6291 (antibody, V domains shown)
VH: B1 VH with W31S, S37G, S52M, R55Y, R58S, Y60W, I104V, N105S
VL: B1 VL with R27Q, N30S, D50G
notes: anti-BACE1 IgG
B3: 6285 (antibody, V domains shown)
VH: B1 VH with I29T, W31S, S37G, R58S, N105S
VL: B1 VL with R27Q, N30S, K53S, V91S, Y92L
notes: anti-BACE1 IgG
B4: 6294 (antibody, V domains shown)
VH: B1 VH with W31S, Y34H, S37G, S52M, R55Y, R58S, Y60W, I104V, N105S
VL: B1 VL with R27Q, N30S
notes: anti-BACE1 IgG
B5: 6280 (antibody, V domains shown)
VH: B1 VH with I29T, W31S, S37G, R58S, L65F, N105S
VL: B1 VL with R27Q, N30S, K53N, V91S, Y92L
notes: anti-BACE1 IgG
B6: 5988 (antibody, V domains shown)
VH: QVQLVQSGAEVKKPGSSVKVSCKASGGTLSGYAISWVRQAPGQGLEWMGNIIPGFGTANYAQKSQGRVTITADESTSTAYMELSSLRSEDTAVYYCARSGGTRYGMLDVWGQGTMVTVSS
VL: GIVMTQSPATLSVSPGERATLSCRASQSVGSNLAWYQQKPGQAPRLLIYGASTRATGIPARFSGSGSGTEFTLTISSLQSEDFAVYYCQQLYTWPPRTFGGGTKVEIK
notes: anti-BACE1 IgG
B7: 6271 (antibody, V domains shown)
VH: B6 VH with L29I, A33G, S64F, R103K
VL: B6 VL with G1E, G30S, Y92I, T93L
notes: anti-BACE1 IgG
B8: 6272 (antibody, V domains shown)
VH: B6 VH with L29F, A33G, S64F, R103K
VL: B6 VL with G1E, G30S, Y92F, T93L
notes: anti-BACE1 IgG
B9: 6273 (antibody, V domains shown)
VH: B6 VH with L29F, A33G, S64F, R103K
VL: B6 VL with G1E, G30S, L33I, Y92L, T93L
notes: anti-BACE1 IgG
B10: 6276 (antibody, V domains shown)
VH: B6 VH with L29F, S30R, F55L, G56S, S64F, R103K
VL: B6 VL with G1E, G30S, Y92I, T93L
notes: anti-BACE1 IgG

Target: T1, human BACE1 ECD
T1 construct: analyte of the Octet assay (200 nM) and enzyme of the first short substrate assay; also called human BACE1 extracellular domain
T1 sequence (single chain, as listed by the source limits assumed): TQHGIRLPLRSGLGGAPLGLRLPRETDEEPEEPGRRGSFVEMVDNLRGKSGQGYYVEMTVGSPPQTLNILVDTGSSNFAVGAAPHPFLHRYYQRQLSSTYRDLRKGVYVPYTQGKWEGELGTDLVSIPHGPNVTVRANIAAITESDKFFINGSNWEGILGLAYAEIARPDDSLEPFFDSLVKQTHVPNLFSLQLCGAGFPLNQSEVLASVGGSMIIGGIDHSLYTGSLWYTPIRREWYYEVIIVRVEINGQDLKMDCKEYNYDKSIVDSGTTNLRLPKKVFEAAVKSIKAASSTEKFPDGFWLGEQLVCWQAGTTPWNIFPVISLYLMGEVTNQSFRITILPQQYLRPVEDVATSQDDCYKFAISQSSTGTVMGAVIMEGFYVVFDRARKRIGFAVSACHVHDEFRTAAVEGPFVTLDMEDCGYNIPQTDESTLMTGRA
Assay: Octet, pH 5.0;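 also: antibodies captured on anti-human capture sensor tips, dissociation monitored in PBS with BSA buffer, kinetics fitted with a one-to-one binding model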
Protocol: (§1) Anti-BACE1 antibodies were loaded onto anti-human capture (AHC) sensors (tips) followed by 60 seconds baseline in assay buffer. […] Tips were transferred to assay buffer for 5 minutes, 30 minutes, or 120 minutes depending on the off-rate, for off-rate measurement. Assay buffer was either PBS+0.1% BSA, pH 7.5; or PBS+0.1% BSA, pH 5.0. Kinetics were analyzed using a 1:1 binding model.

**Q.** For B1, which Kd is on record?
**A.** < 0.18 nM

**Q.** B2 was tested. Which Kd did it give?
**A.** < 0.26 nM

**Q.** With B3 as the binder, how does the Kd read?
**A.** 0.43 nM

**Q.** For B4, which Kd is on record?
**A.** < 0.27 nM

**Q.** For B5, which Kd is on record?
**A.** 0.31 nM

**Q.** For B6, which Kd is on record?
**A.** < 0.25 nM

**Q.** How did the Kd turn out when B7 was run?
**A.** < 0.24 nM

**Q.** With B8 as the binder, how does the Kd read?
**A.** < 0.39 nM

**Q.** How did the Kd turn out when B9 was run?
**A.** < 0.26 nM

**Q.** B10 was tested. Which Kd did it give?
**A.** < 0.41 nM

Target: T2, murine BACE1 ECD
T2 construct: analyte of the Octet assay (200 nM) and enzyme of the first short substrate assay
T2 sequence (single chain, as listed by the source limits assumed): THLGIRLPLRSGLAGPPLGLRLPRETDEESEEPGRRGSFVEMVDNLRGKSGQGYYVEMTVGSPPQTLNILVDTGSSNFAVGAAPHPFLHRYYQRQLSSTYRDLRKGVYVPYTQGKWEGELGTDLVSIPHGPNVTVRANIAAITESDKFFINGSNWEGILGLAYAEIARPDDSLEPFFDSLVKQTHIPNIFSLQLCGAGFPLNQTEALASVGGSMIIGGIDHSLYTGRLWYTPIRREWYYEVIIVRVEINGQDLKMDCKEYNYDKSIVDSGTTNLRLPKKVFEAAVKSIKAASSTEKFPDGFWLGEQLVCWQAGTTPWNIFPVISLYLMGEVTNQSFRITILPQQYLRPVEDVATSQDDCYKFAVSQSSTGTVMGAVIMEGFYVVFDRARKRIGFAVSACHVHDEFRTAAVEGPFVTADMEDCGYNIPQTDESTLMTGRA
Assay: Octet, pH 5.0;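 also: antibodies captured on anti-human capture sensor tips, dissociation monitored in PBS with BSA buffer, kinetics fitted with a one-to-one binding model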
Protocol: as §1

**Q.** With B1 as the binder, how does the Kd read?
**A.** < 0.23 nM

**Q.** How did the Kd turn out when B2 was run?
**A.** < 0.3 nM

**Q.** With B3 as the binder, how does the Kd read?
**A.** 0.41 nM

**Q.** With B4 as the binder, how does the Kd read?
**A.** < 0.34 nM

**Q.** Which Kd does the source give for B5 here?
**A.** < 0.31 nM

**Q.** How did the Kd turn out when B6 was run?
**A.** < 0.29 nM

**Q.** Which Kd does the source give for B7 here?
**A.** < 0.31 nM

**Q.** How did the Kd turn out when B8 was run?
**A.** < 0.4 nM

**Q.** For B9, which Kd is on record?
**A.** < 0.4 nM

**Q.** How did the Kd turn out when B10 was run?
**A.** < 0.54 nM

Target: T1, human BACE1 ECD
Assay: Octet, pH 7.5;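 also: antibodies captured on anti-human capture sensor tips, dissociation monitored in PBS with BSA, Kd obtained from kinetic fit to a one-to-one binding model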
Protocol: as §1

**Q.** For B1, which Kd is on record?
**A.** < 0.18 nM

**Q.** Which Kd does the source give for B2 here?
**A.** < 0.28 nM

**Q.** For B3, which Kd is on record?
**A.** 0.32 nM

**Q.** Which Kd does the source give for B4 here?
**A.** < 0.3 nM

**Q.** Which Kd does the source give for B5 here?
**A.** < 0.32 nM

**Q.** B6 was tested. Which Kd did it give?
**A.** < 0.29 nM

**Q.** Which Kd does the source give for B7 here?
**A.** < 0.31 nM

**Q.** B8 was tested. Which Kd did it give?
**A.** < 0.87 nM

**Q.** For B9, which Kd is on record?
**A.** < 0.39 nM

**Q.** With B10 as the binder, how does the Kd read?
**A.** < 0.59 nM

Target: T2, murine BACE1 ECD
Assay: Octet, pH 7.5;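 also: antibodies captured on anti-human capture sensor tips, dissociation monitored in PBS with BSA, Kd obtained from kinetic fit to a one-to-one binding model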
Protocol: as §1

**Q.** How did the Kd turn out when B1 was run?
**A.** < 0.18 nM

**Q.** B2 was tested. Which Kd did it give?
**A.** < 0.26 nM

**Q.** Which Kd does the source give for B3 here?
**A.** < 0.28 nM

**Q.** How did the Kd turn out when B4 was run?
**A.** < 0.3 nM

**Q.** For B5, which Kd is on record?
**A.** < 0.32 nM

**Q.** How did the Kd turn out when B6 was run?
**A.** < 0.29 nM

**Q.** How did the Kd turn out when B7 was run?
**A.** < 0.31 nM

**Q.** B8 was tested. Which Kd did it give?
**A.** < 0.41 nM

**Q.** How did the Kd turn out when B9 was run?
**A.** < 0.39 nM

**Q.** For B10, which Kd is on record?
**A.** < 0.62 nM

Target: BACE1 in primary mouse cortical neurons (mouse, UniProt P56818 46-501)
Sequence (P56818 46-501): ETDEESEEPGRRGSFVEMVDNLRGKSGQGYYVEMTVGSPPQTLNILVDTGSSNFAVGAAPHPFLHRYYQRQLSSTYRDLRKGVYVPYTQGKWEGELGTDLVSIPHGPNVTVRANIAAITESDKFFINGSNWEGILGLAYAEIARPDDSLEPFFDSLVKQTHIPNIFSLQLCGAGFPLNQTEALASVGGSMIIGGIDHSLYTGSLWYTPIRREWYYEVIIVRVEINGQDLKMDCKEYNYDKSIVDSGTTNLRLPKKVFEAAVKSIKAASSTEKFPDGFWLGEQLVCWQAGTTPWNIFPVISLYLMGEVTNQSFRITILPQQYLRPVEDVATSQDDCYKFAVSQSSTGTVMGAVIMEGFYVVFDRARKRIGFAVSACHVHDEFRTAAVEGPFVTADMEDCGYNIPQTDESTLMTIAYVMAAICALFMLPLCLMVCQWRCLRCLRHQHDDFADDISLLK
Assay: cell-based or functional assay

**Q.** How did the “IC50, Abeta x-40 in mouse cortical neurons” value turn out when B1 was run?
**A.** 0.53 nM

**Q.** And the “maximal % inhibition of Abeta x-40” value?
**A.** 61%

**Q.** How did the “IC50, Abeta x-40 in mouse cortical neurons” value turn out when B2 was run?
**A.** 1.41 nM

**Q.** And the “maximal % inhibition of Abeta x-40” value?
**A.** 68%

**Q.** For B3, which “IC50, Abeta x-40 in mouse cortical neurons” value is on record?
**A.** 15.4 nM

**Q.** What about the “maximal % inhibition of Abeta x-40” value of the same binder?
**A.** 57%

**Q.** What does the source list for B4?
**A.** IC50, Abeta x-40 in mouse cortical neurons: 3.53 nM; maximal % inhibition of Abeta x-40: 59%

**Q.** How did the “IC50, Abeta x-40 in mouse cortical neurons” value turn out when B5 was run?
**A.** 8.29 nM

**Q.** What about the “maximal % inhibition of Abeta x-40” value of the same binder?
**A.** 65%

**Q.** Which “IC50, Abeta x-40 in mouse cortical neurons” value does the source give for B6 here?
**A.** 3.55 nM

**Q.** What about the “maximal % inhibition of Abeta x-40” value of the same binder?
**A.** 75%

**Q.** B7 was tested. Which “IC50, Abeta x-40 in mouse cortical neurons” value did it give?
**A.** 1.77 nM

**Q.** What about the “maximal % inhibition of Abeta x-40” value of the same binder?
**A.** 83%

**Q.** What does the source list for B8?
**A.** IC50, Abeta x-40 in mouse cortical neurons: 43.6 nM; maximal % inhibition of Abeta x-40: 82%

**Q.** For B9, which “IC50, Abeta x-40 in mouse cortical neurons” value is on record?
**A.** 5.71 nM

**Q.** And the “maximal % inhibition of Abeta x-40” value?
**A.** 82%

**Q.** B10 was tested. Which “IC50, Abeta x-40 in mouse cortical neurons” value did it give?
**A.** 7.4 nM

**Q.** What about the “maximal % inhibition of Abeta x-40” value of the same binder?
**A.** 81%
